Reference: patent publication US12479928B2, “Anti-cancer peptide” (Minerva Biotechnologies Corporation, priority 2014, dated 2025)
Several values for one entry are separate records, joined by “and”; a condition that tells them apart may be missing. Identical values can stand only once.

Legend:
T47D breast cancer cells = assay: Induced transition of breast cancer cells to a more metastatic state, RT-PCR of metastatic markers; type: cell-based, human
Procedure: In one particular experiment, T47D human breast cancer cells were cultured in standard RPMI media for 14 days with media changes every 48 hours and passed by trypsinization when approximately 75% confluent. The cells were then plated into 6-well plates and cultured in minimal stem cell media (see Example 1) that was supplemented with 4 nM NME7-AB. Media was changed every 48 hours. By about Day 4, some cells become detached from the surface and float. Media is carefully changed so as to retain the “floaters” as these are the cells that have the highest metastatic potential as evidence by RT-PCR measurement of metastatic markers. On Day 7 or 8, the floaters are harvested and counted. Samples are retained for RT-PCR measurement.
We have shown that NME7-AB promotes cancerous growth and causes cancer cells to accelerate to the highly metastatic cancer stem cell (CSC) state also called tumor initiating cells (TIC). Therefore, we conclude that NME7-X1 and an NME7 cleavage product that removes the DM10 domain also promote cancerous growth and causes cancer cells to accelerate to the highly metastatic cancer stem cell (CSC) state also called tumor initiating cells (TIC). In one example, NME7-AB was added to cancer cells in a serum-free media and in the absence of any other growth factors or cytokines. […] After 10 days cells were collected and analyzed by RT-PCR for expression of molecular markers of CSCs which were elevated by 10-200-times (FIGS. 11, 12). […]
A rho I kinase inhibitor, ROCi, ROCKi or Ri, was added to prevent the transformed cells from floating off the plate. Expression levels of various metastatic markers as well as pluripotent stem cell markers were measured for the parent cells and for the NME7-AB cultured cells.
T47D human breast cancer cells were cultured in standard RPMI media for 14 days with media changes every 48 hours and passed by trypsinization when approximately 75% confluent. […] On Day 7 or 8, the floaters are harvested and counted. […]

[1] = tested on: SK-OV3 ovarian cancer cell line; assay: RT-PCR of metastatic markers after culture in NME7-AB, SK-OV3; type: cell-based, human; settings: 72 or 144 hours
Source text: (§1) FIGS. 37A-37C show graphs of RT-PCR measurements of metastatic markers in cancer cells after being cultured in a serum-free media containing NME7-AB compared to the standard media.

[2] = tested on: OV-90 ovarian cancer cell line; assay: RT-PCR of metastatic markers after culture in NME7-AB, OV-90; type: cell-based, human; settings: 72 or 144 hours
Source text: as §1

[3] = tested on: T47D human breast cancer cells xenografted; assay: Xenograft of NME7-AB cultured floater cells in nu/nu mice with daily NME7-AB injection; type: in vivo, female nu/nu athymic mice
Procedure: The freshly harvested floater metastatic cells were xenografted into the flank of female nu/nu athymic mice that have been implanted with 90-day slow release estrogen pellets. Floater cells were xenografted with 10,000, 1,000, 100 or 50 cells each. Half of the mice in each group of 6 were also injected daily with 32 nM NME7-AB near the original implantation site. The parent T47D cells that were cultured in RPMI media without NME7-AB were also implanted into mice at 6 million, 10,000 or 100 as controls. Mice implanted with the NME7-induced floater cells developed tumors even when as few as 50 cells were implanted. Mice that were implanted with the floater cells and that received daily injections of NME7-AB also developed remote tumors or remote metastases in various organs (FIG. 20-25). 11 out of the 12 mice, or 92%, that were injected with human NME7-AB after implantation of the NME7-AB cultured cancer cells developed tumors at the injection site. Only 7 out of the 12 mice, or 58%, that were not injected with human NME7-AB after implantation developed tumors. […] None of the mice that were not injected with NME7-AB developed multiple, visible tumors.
The freshly harvested floater metastatic cells are xenografted into the flank of female nu/nu athymic mice that have been implanted with 90-day slow release estrogen pellets. Floater cells were xenografted as 10,000, 1,000, 100 or 50 cells each. Half of the mice in each group of 6 were also injected daily with 32 nM NME7-AB near the original implantation site. The parent T47D cells that were cultured in RPMI media without NME7-AB were also implanted into mice as 6 million, 10,000 or 100 as controls. Mice implanted with the NME7-induced floater cells developed tumors even when as few as 50 cells were implanted. Mice that were implanted with the floater cells and that received daily injections of NME7-AB also developed remote tumors or remote metastases in various organs (FIG. 20-25). 11 out of the 12 mice, or 92%, that were injected with human NME7-AB after implantation of the NME7-AB cultured cancer cells, developed tumors at the injection site. Only 7 out of the 12 mice, or 58%, that were not injected with human NME7-AB after implantation developed tumors. 9 out of the 11 mice, or 82%, that got tumors and were injected with human NME7-AB developed multiple tumors remote from the injection site. None of the mice that were not injected with NME7-AB developed multiple, visible tumors.

[4] = tested on: DU145 prostate cancer cells; assay: RT-PCR of CSC markers after culture in NME7-AB, DU145; type: cell-based, human
Procedure: FIG. 13 is a graph of RT-PCR measurements of gene expression for a variety of stem and putative cancer stem cell markers for DU145 prostate cancer cells. Cells were cultured either in traditional media or a media containing NME1 dimers (“NM23”) or NME7 (NME7-AB). Rho kinase inhibitor was not used because by passage 2, cells remained adherent.
Ovarian cancer cells, pancreatic cancer cells and melanoma cells were also cultured in NME7-AB and were transformed to a more metastatic state after as few as 3 days in culture.

B1: NME7-AB: recombinant human NME7 devoid of the DM10 domain, NDPK A and B domains, about 33 kDa monomer (protein)
chain: MEKTLALIKPDAISKAGEIIEIINKAGFTITKLKMMMLSRKEALDFHVDHQSRPFFNELIQFITTGPIIAMEILRDDAICEWKRLLGPANSGVARTDASESIRALFGTDGIRNAAHGPDSFASAAREMELFFPSSGGCGPANTAKFTNCTCCIVKPHAVSEGLLGKILMAIRDAGFEISAMQMFNMDRVNVEEFYEVYKGVVTEYHDMVTEMYSGPCVAMEIQQNNATKTFREFCGPADPEIARHLRPGTLRAIFGKTKIQNAVHCTDLPEDGLLEVQYFFKILDN
With B1 the CXCR4 up-regulation (T47D breast cancer cells; 4 nM NME7-AB in minimal stem cell media, floaters Day 7 or 8) was 40-200 times, the “elevation of molecular markers of CSCs” value (T47D breast cancer cells; 16 nM NME7-AB, after 10 days) was 10-200 times and the “increase in expression of molecular markers such as CXCR4” value (T47D breast cancer cells; serum-free media, within 7-10 days) was “more than 100 fold”. For the same molecule, the “metastatic marker expression after culture in NME7-AB” value [1] was “increase expression of metastatic markers CHD1, SOX2 and NME7-X1”, the “metastatic marker expression after culture in NME7-AB” value [2] was “increase expression of metastatic markers CXCR4 and NME7-X1” and the “number of implanted NME7-induced floater cells that developed tumors” value ([3]; cells pre-cultured in NME7-AB) was ≤ 50 cells. For the same molecule, the “mice that developed tumors at the injection site” value ([3]; injected daily with 32 nM NME7-AB, 11 out of 12 mice) was 92%, the “mice that developed multiple tumors remote from the injection site” value ([3]; injected daily with NME7-AB, 9 out of 11 mice with tumors) was 82% and 80% and the “engraftment rate of cancer cells cultured in NME7-AB” value ([3]; xenografted into test animals) was “over 90%”. The “CSC marker expression after culture in NME7-AB” value [4] was “dramatic increases in expression of CSC markers”.
